Reference: paper PMC4745047, “Tuned by metals: the TET peptidase activity is controlled by 3 metal binding sites” (Scientific Reports, 2016)

Legend:
[1] = target: T1, PfTET3 (TET3 aminopeptidase; PfTET3Zn) (Pyrococcus furiosus, UniProt Q8TZW4); experiment: Lys-pNA hydrolysis, pNA release at […] nm, EDTA titration, biphasic fit; assay type: biochemical; details: 85 °C; 5 mM Lys-pNA; 0.1 M HEPES pH 7.2, 316 mM KCl; 10 nM enzyme; metal chelation (M1 Zn2+ removal), not direct binding; first site of two; partial step; read-out: EC50_1
T1 construct: gene PF1861; Recombinant, pET-41c; purified as for PhTET3; homododecamer (about 500 kDa); as purified contains two Zn2+ per active site
T1 sequence (Q8TZW4 1-346): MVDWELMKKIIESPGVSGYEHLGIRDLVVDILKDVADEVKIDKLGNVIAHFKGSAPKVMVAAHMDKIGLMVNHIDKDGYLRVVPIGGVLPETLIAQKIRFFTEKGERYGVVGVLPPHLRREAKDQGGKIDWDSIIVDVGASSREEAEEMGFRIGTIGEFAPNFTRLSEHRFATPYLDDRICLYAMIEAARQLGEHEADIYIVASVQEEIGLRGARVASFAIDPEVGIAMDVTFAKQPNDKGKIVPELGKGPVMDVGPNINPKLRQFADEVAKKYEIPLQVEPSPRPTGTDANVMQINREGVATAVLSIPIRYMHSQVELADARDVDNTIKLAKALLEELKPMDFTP

Glu207 = Glu207 (UniProt position 207, VASVQEEIGLR); experiment: kinetics; details: not given for the pH series (standard assay: KCl 316 mM), not given for the pH series (standard assay: 0.1 M HEPES pH 7.2)

Molecule	EC50 [1] [µM]	pKa (Glu207; 20 °C, PfTET3Co: 300 uM Co2+ present (Co2+ in M1 and M3, Zn2+ in M2))	pKa (Glu207; 20 °C, PfTET3Zn: as purified, Zn2+ in M1 and M2, no Co2+ added)	pKa (Glu207; 85 °C, PfTET3Co: 300 uM Co2+ present (Co2+ in M1 and M3, Zn2+ in M2))	pKa (Glu207; 85 °C, PfTET3Zn: as purified, Zn2+ in M1 and M2, no Co2+ added)
O=C(O)CN(CCN(CC(=O)O)CC(=O)O)CC(=O)O [EDTA]	13	–	–	–	–
TET3 aminopeptidase (PfTET3; lysine-specific tetrahedral aminopeptidase) (Pyrococcus furiosus)	–	5.6	5.9	4.45	4.75
